Data as given in the supplement of paper PMC7877785.
± gives the uncertainty stated by the source.

Assay: self-splicing fitness, log relative to wild type (ln ratio); higher = more splicing; Tetrahymena group I intron in knt gene, E. coli kanamycin selection, DiMSum; sequences stand for … in CUCUCU…GGAGGGAAAAGUUAUCAGGCAUGCACCUGGUAGCUAGUCUUUAAACCAAUAGAUUGCAUCGGUUUAAAAGGCAAGACCGUCAAAUUGCGGGAAAGGGGUCAACAGCCGUUCAGUACCAAGUCUCAGGGGAAACUUUGAGAUGGCCUUGCAAAGGGUAUGGUAAUAAGCUGACGGACAUGGUCCUAACCACGCAGCCAAGUCCUAAGUCAACAGAUCUUCUGUUGAUAUGGAUGCAGUUCACAGACUAAAUGUCGGUCGGGGAAGAUGUAUUCUUCUCAUAAGAUAUAGUCGGACCUCUCCUUAAUGGGAGCUAGCGGAUGAAGUGAUGCAACACUGGAGCCGCUGGGAACUAAUUUGUAUGCGAAAGUAUAUUGAUUAGUUUUGGAGUACUCGUGGUCG
In short: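 Six replicate transformations of E. coli BL21(DE3) with a pET-22b(+) library were grown overnight at 37°C or 30°C. The library randomised all eight P1ex-region intron nucleotides, the intron lying in the knt kanamycin-resistance gene, and plates were LB agar with or without 25 μg/mL kanamycin plus 100 μg/mL carbenicillin, 50 μM IPTG and 0.2% rhamnose. Pooled colonies were amplicon-sequenced on an Illumina HiSeq 2500, and fitness is the DiMSum error-weighted combination of wild-type-normalised replicate fold changes, kanamycin versus none.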

Sequence	self-splicing fitness (ln) (37 °C)	self-splicing fitness (ln) (30 °C)
GAAUAGCAAUAUUACGCUCC	-1.37 ± 0.33	
AACUAGCAAUAUUACGAUGG	-0.739 ± 0.14	-2.49 ± 0.17
UCGGAGCAAUAUUACGCUGA	-2.16 ± 0.2	-2.56 ± 0.29
UGCGAGCAAUAUUACGCUGA	-2.28 ± 0.27	-2.35 ± 0.27
AGAUAGCAAUAUUACGGCGU	0.663 ± 0.1	-0.0254 ± 0.091
GCCUAGCAAUAUUACGCUAU	-0.105 ± 0.17	-0.383 ± 0.11
UGACAGCAAUAUUACGGGAG	-0.0844 ± 0.061	-1.59 ± 0.062
CUGAAGCAAUAUUACGGGCU	-3.15 ± 0.21	-3.56 ± 0.17
AUACAGCAAUAUUACGAGAC	-1.82 ± 0.18	-4.95 ± 0.41
GACUAGCAAUAUUACGAUCC	-1.57 ± 0.2	-2.21 ± 0.18
ACUAAGCAAUAUUACGUCCA	-1.22 ± 0.16	-1.54 ± 0.12
GAAAAGCAAUAUUACGCGCU	-0.301 ± 0.11	-0.913 ± 0.11
GCGUAGCAAUAUUACGUGCC	-2.83 ± 0.44	-3.08 ± 0.25
GCAAAGCAAUAUUACGGUCG	-0.369 ± 0.11	-1.62 ± 0.089
GUGCAGCAAUAUUACGGAAC	-1.12 ± 0.33	-2.17 ± 0.23
AUCUAGCAAUAUUACGAUUG	-2.79 ± 0.34	-3.1 ± 0.28
UCGGAGCAAUAUUACGACUG	0.217 ± 0.17	-1.59 ± 0.31
CGCCAGCAAUAUUACGUAAA	-1.46 ± 0.13	-3.21 ± 0.19
UUAUAGCAAUAUUACGAAAG	-2.69 ± 0.38	-3.47 ± 0.37
GGAAAGCAAUAUUACGGGAG	-1.83 ± 0.19	-3.54 ± 0.28
UUAGAGCAAUAUUACGUGUG	-1.11 ± 0.14	-1.27 ± 0.09

Sequence	self-splicing fitness (ln) (37 °C)	self-splicing fitness (ln) (30 °C)
AUUAAGCAAUAUUACGCGCC	-0.862 ± 0.2	-1.18 ± 0.15
GGGAAGCAAUAUUACGUUAU	-1.33 ± 0.18	-2.98 ± 0.26
AUUCAGCAAUAUUACGCCAG	-0.928 ± 0.22	-3.08 ± 0.22
CUUCAGCAAUAUUACGCAAU	-2.04 ± 0.3	-4.04 ± 0.37
AAAAAGCAAUAUUACGGAGU	-1.63 ± 0.13	-2.15 ± 0.13
AAACAGCAAUAUUACGUAGG	-1.34 ± 0.08	-1.85 ± 0.057
CUACAGCAAUAUUACGGCAA	-2.79 ± 0.23	-3.24 ± 0.24
UCCUAGCAAUAUUACGGUCC		-2.63 ± 0.24
GCGCAGCAAUAUUACGAUCC	0.707 ± 0.24	-0.589 ± 0.15
ACGCAGCAAUAUUACGGAGG	-1.84 ± 0.12	-3.65 ± 0.15
UAAUAGCAAUAUUACGAUCU	-0.601 ± 0.12	-1.4 ± 0.098
UGCCAGCAAUAUUACGGUGU	-2.7 ± 0.19	-2.53 ± 0.11
GCAGAGCAAUAUUACGGACC	-0.0809 ± 0.29	-3.65 ± 0.37
AGUGAGCAAUAUUACGUUCA	-2.41 ± 0.37	-3.1 ± 0.38
CUUAAGCAAUAUUACGGAUA		-1.88 ± 0.36
CUCCAGCAAUAUUACGGGGU	-2.61 ± 0.19	-3.58 ± 0.17
AUAAAGCAAUAUUACGAGAU	-1.22 ± 0.12	-2.31 ± 0.11
GAUAAGCAAUAUUACGGUAC	-0.383 ± 0.17	-1.92 ± 0.12
UAUAAGCAAUAUUACGAUAC	-2.39 ± 0.33	
CAUUAGCAAUAUUACGAAUU	-1.2 ± 0.17	-2.07 ± 0.22
GUGUAGCAAUAUUACGGUGG	-3.36 ± 0.31	-3.98 ± 0.35

Sequence	self-splicing fitness (ln) (37 °C)	self-splicing fitness (ln) (30 °C)
CCUGAGCAAUAUUACGCAGC	-1.38 ± 0.3	
CUUUAGCAAUAUUACGUUUC	-2.15 ± 0.23	
AACCAGCAAUAUUACGUAUA	-0.853 ± 0.088	-1.4 ± 0.072
AAUCAGCAAUAUUACGGACC	-0.451 ± 0.13	0.313 ± 0.13
GUCGAGCAAUAUUACGCCCU	-0.627 ± 0.41	
AGGUAGCAAUAUUACGGAAA	-1.96 ± 0.039	-2.92 ± 0.033
CUCUAGCAAUAUUACGGAGC	-3.48 ± 0.26	-3.72 ± 0.27
GCUCAGCAAUAUUACGACUC	0.646 ± 0.14	-0.0981 ± 0.14
CUGGAGCAAUAUUACGUGCA		-3.46 ± 0.41
AGAAAGCAAUAUUACGCUUU	-3.24 ± 0.4	-3.57 ± 0.23
AAUGAGCAAUAUUACGUAUA	-1.93 ± 0.13	-3.43 ± 0.17
CACCAGCAAUAUUACGAAUG	0.236 ± 0.058	-0.784 ± 0.039
UCUAAGCAAUAUUACGACAA	-1.33 ± 0.11	-1.13 ± 0.11
CGUUAGCAAUAUUACGACAU	-0.592 ± 0.033	-1.529 ± 0.015
CACGAGCAAUAUUACGCUGU	-3.31 ± 0.18	-3.55 ± 0.18
UGAUAGCAAUAUUACGGGAU	-2.15 ± 0.26	-2.03 ± 0.17
UGGUAGCAAUAUUACGCAGU	-2.76 ± 0.4	-3.14 ± 0.4
AAGAAGCAAUAUUACGAAUG	-1.66 ± 0.14	-2.19 ± 0.13
CAUCAGCAAUAUUACGGGUA	-0.0764 ± 0.079	-0.63 ± 0.07
ACGUAGCAAUAUUACGUUUG	-2.95 ± 0.18	-3.46 ± 0.17
